Data: patent EP3766894A1 (Ecole Polytechnique Federale De Lausanne (EPFL) EPFL-TTO, dated 2021)
Blank lines part the entries; values can stand above or below the binder they belong to. Positions of bridges follow the written chain, without caps; N, C: chain ends. Non-standard residues stand in square brackets, D forms with d. Primed or numbered codes have the meaning given here. Chains are numbered I, II in the order given. No end group written: not given here. *: point of attachment. Palmitoyl = CCCCCCCCCCCCCCCC(=O)*; Nle = CCCC[C@H](N)C(=O)O; PEG2″ = not defined here

Tests used:
[1] = biological target: T1, human serum albumin (HSA) (human, UniProt P02768 25-609); experiment: fluorescence polarization
[2] = biological target: T2, mouse serum albumin (MSA) (mouse, UniProt P07724 25-608); experiment: fluorescence polarization, dilution series of mouse albumin in PBS
T2 construct: also called mouse albumin
T2 sequence (P07724 25-608 limits assumed): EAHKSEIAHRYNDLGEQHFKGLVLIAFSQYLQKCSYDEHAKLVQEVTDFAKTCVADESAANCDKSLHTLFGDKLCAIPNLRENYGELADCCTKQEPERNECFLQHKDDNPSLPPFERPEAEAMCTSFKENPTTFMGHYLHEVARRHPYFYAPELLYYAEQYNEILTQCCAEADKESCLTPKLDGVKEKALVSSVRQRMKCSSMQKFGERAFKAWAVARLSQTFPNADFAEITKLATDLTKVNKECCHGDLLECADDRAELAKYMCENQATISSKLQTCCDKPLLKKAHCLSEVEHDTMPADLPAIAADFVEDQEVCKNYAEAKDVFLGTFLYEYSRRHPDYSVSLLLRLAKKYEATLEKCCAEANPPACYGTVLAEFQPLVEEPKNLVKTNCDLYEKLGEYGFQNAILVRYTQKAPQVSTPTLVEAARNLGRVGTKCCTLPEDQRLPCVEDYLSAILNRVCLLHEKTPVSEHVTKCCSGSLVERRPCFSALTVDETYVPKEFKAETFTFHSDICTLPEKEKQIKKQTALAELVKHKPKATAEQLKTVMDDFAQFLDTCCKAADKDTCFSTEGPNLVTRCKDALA

[3] = biological target: T3, human Kallikrein-related peptidase 5 (hKLK5) (human, UniProt Q9Y337 67-293, limits assumed); experiment: activity assay in the presence of 25 µM HSA
T3 construct: Active protease in substrate-based activity assays; also called stratum corneum tryptic enzyme (SCTE)
T3 sequence (Q9Y337 67-293 limits assumed): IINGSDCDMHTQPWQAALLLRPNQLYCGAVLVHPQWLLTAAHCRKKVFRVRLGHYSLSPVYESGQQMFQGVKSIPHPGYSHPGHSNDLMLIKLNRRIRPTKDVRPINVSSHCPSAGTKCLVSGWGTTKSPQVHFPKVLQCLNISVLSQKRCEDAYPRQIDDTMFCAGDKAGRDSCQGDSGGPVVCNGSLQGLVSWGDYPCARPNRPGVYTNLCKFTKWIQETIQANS

[4] = biological target: T1, human serum albumin (HSA); experiment: fluorescence polarization, dilution series of human serum
[5] = biological target: mouse KLK5 (mKLK5) (mouse); experiment: substrate-based activity assay, same conditions as for hKLK
[6] = biological target: T4, human Kallikrein-related peptidase 7 (hKLK7) (human, UniProt P49862 30-253); experiment: substrate-based activity assay
T4 construct: Active protease in substrate-based activity assays; also called stratum corneum chymotryptic enzyme (SCCE)
T4 sequence (P49862 30-253 limits assumed): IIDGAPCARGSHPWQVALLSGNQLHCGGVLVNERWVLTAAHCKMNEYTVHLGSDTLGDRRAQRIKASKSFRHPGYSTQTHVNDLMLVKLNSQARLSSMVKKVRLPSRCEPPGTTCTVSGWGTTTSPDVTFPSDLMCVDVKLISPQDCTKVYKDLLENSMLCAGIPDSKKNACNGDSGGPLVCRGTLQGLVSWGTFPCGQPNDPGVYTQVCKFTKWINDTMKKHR

[7] = biological target: T4, human Kallikrein-related peptidase 7 …; experiment: activity assay in the presence of 25 µM HSA
[8] = biological target: mouse KLK7 (mKLK7) (mouse, UniProt Q91VE3 26-249); experiment: substrate-based activity assay, same conditions as for hKLK
mouse KLK7 (mKLK7), sequence (Q91VE3 26-249 limits assumed): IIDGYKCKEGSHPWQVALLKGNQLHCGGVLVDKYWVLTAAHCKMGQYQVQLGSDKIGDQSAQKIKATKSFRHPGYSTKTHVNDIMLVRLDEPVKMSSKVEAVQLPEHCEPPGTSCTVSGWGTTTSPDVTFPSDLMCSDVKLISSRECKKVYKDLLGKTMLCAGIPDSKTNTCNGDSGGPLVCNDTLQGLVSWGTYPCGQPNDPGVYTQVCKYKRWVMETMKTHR

[9] = biological target: T3, human Kallikrein-related peptidase 5 …; experiment: substrate-based activity assay
[10] = biological target: T5, FXIIa (Factor XIIa) (human, UniProt P00748 373-615, limits assumed); experiment: substrate-based activity assay
T5 sequence (looked up): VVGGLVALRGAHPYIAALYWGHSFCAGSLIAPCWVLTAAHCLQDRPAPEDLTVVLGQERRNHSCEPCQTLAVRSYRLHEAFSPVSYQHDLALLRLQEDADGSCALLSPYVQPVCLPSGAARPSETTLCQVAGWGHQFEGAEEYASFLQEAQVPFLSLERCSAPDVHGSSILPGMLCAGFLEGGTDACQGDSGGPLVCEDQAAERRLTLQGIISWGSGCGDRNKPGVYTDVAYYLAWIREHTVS

Kd [1]: 132 nM
B1: peptide 282 (albumin tag variant, biphenyl-3-carboxylic acid) (peptide)
peptide: EYEKEYEK
modifications: not fully specified; N-terminal cap based on peptide 266 with biphenyl-3-carboxylic acid; Lys 4 side chain acylated with palmitic acid; 5(6)-FAM on the side chain of the additional C-terminal Lys

Kd [2]: 4200 nM
B2: albumin tag (F-tag) (peptide)
peptide: {fluorescein-PEG2″}-EYEK(Palmitoyl)EYE
notes: also called fluorescein-tag

Ki [3]: 1.2 nM
Kd [4]: 119 nM
IC50 [5]: 2 nM
B3: KLK5 inhibitor 035-tag (C-terminal albumin tag conjugate of 035) (peptide)
peptide 1: GCTRQYPCGKG
peptide 2: EYEK(Palmitoyl)EYE
modifications: bridge I:2-I:8; not fully specified (N-terminus, bridges); also: N-terminal fluorescein via PEG2, chain not given here, chain 2 tag joined via PEG2 to Lys10 side chain of chain 1

Kd [1]: 147 nM
B4: peptide 284 (albumin tag variant, 2-naphthalenecarboxylic acid) (peptide)
peptide: EYEKEYEK
modifications: not fully specified; N-terminal cap based on peptide 266 with 2-naphthalenecarboxylic acid; Lys 4 side chain acylated with palmitic acid; 5(6)-FAM on the side chain of the additional C-terminal Lys

Ki [6]: 16 nM
B5: peptide 096 (lead KLK7 inhibitor) (peptide)
peptide: PCLYLARCS
modifications: bridge 2-8; not fully specified (bridges)

Ki [6]: 7 nM
B6: peptide 114 with norleucine in position five (peptide)
peptide: PCLY[Nle]ARC
modifications: linker 2-8 via 1,3‑dibromoacetone
notes: No peptide number is printed for the untagged norleucine derivative

Ki [7]: 32 nM
Kd [4]: 164 nM
IC50 [8]: 20 nM
B7: KLK7 inhibitor 096-tag (C-terminal albumin tag conjugate of 096) (peptide)
peptide 1: PCLYLARCSGKG
peptide 2: EYEK(Palmitoyl)EYE
modifications: bridge I:2-I:8; not fully specified (N-terminus, bridges); also: N-terminal fluorescein via PEG2, chain not given here, chain 2 tag joined via PEG2 to Lys11 side chain of chain 1

Ki [9]: 2.2 nM
Ki [10]: 40000 nM
B8: peptide 035 (lead KLK5 inhibitor) (peptide)
peptide: GCTRQYPC
modifications: linker 2-8 via 1,3‑dibromoacetone

Ki [3]: 23 nM
fold loss in activity against the cyclic peptide alone [3]: 10 fold
binding result [4]: binds
B9: N-terminal albumin tag conjugate of KLK5 inhibitor 035 (peptide)
peptide 1: GCTRQYPC
peptide 2: {5(6)‑carboxyfluorescein}-EYEK(Palmitoyl)EYE
modifications: bridge I:2-I:8; not fully specified (C-terminus, bridges); also: chain 2 C-terminus joined via PEG2 to chain 1 N-terminus, linker to a chain's N/C-terminus via PEG2
